Measurements: publication PMC3535368, “Heme orientation modulates histidine dissociation and ligand binding kinetics in the hexacoordinated human neuroglobin” (Journal of Biological Inorganic Chemistry, 2012)
Where a chain is given by its changes, count along the chain named. Like-named read-outs stand apart in the source and are kept apart here.

B1: WTox (A isomer): oxidized wild-type human Ngb (Cys46-Cys55 disulfide bridge), A heme conformer (protein, UniProt Q9NPG2 1-151, looked up)
Neuroglobin: MERPEPELIRQSWRAVSRSPLEHGTVLFARLFALEPDLLPLFQYNCRQFSSPEDCLSSPEFLDHIRKVMLVIDAAVTNVEDLSSLEEYLASLGRKHRAVGVKLSSFSTVGESLLYMLEKCLGPAFTPATRAAWSQLYGAVVQAMSRGWDGE
modifications: oxidized, heme A isomer
B2: WTox (B isomer): oxidized wild-type human Ngb (Cys46-Cys55 disulfide bridge), B heme conformer (protein, UniProt Q9NPG2 1-151, looked up)
Neuroglobin: B1 Neuroglobin
modifications: oxidized, heme B isomer
B3: WTred (B isomer): DTT-reduced wild-type human Ngb, B heme conformer (protein, UniProt Q9NPG2 1-151, looked up)
Neuroglobin: B1 Neuroglobin
modifications: DTT-reduced, heme B conformer
B4: WTred (A isomer): DTT-reduced wild-type human Ngb, A heme conformer (protein, UniProt Q9NPG2 1-151, looked up)
Neuroglobin: B1 Neuroglobin
modifications: DTT-reduced, heme A conformer
B5: WTred: wild-type human Ngb with reduced cysteines, both heme isomers (protein, UniProt Q9NPG2 1-151, looked up)
Neuroglobin: B1 Neuroglobin
modifications: reduced cysteines
notes: wild-type human Ngb with reduced cysteines, both heme isomers
B6: C120Sred (B isomer) (protein, UniProt Q9NPG2 1-151, looked up, variant C120S)
Neuroglobin: B1 Neuroglobin with C120S
modifications: reduced, heme B isomer
B7: human Ngb: human neuroglobin, hexacoordinated hemoprotein of brain and retina (protein, UniProt Q9NPG2 1-151, looked up)
Neuroglobin: B1 Neuroglobin
B8: C120Sox (A isomer) (protein, UniProt Q9NPG2 1-151, looked up, variant C120S)
Neuroglobin: B1 Neuroglobin with C120S
modifications: oxidized, heme A isomer
B9: C120Sox (B isomer) (protein, UniProt Q9NPG2 1-151, looked up, variant C120S)
Neuroglobin: B1 Neuroglobin with C120S
modifications: oxidized, heme B isomer
B10: C120Sred (A isomer) (protein, UniProt Q9NPG2 1-151, looked up, variant C120S)
Neuroglobin: B1 Neuroglobin with C120S
modifications: reduced, heme A isomer

Assays:
[1] = for fraction of isomer remaining unbound (free) at equilibrium: end of reaction; for k off, off-rate of cyanide: estimated from K d and k obs; for Kd: read-out: K d, dissociation constant of cyanide, calculated from concentrations of free and bound species at equilibrium
[2] = Air reoxidation of the disulfide bridge followed by 1H NMR, cyanide omitted; assay type: physicochemical, human; conditions: no reducing agent, increase of WTox peak intensity
[3] = parameters: method as in PMID 15020597; conditions: UV-visible study; cited from earlier work
[4] = 500 μM KCN, 100 μM protein, 20 mM Tris-HCl pH 7.4, 298 K
[5] = calculated from T and 500 μM cyanide, 1/T = k obs[CN−]

Row | Molecule | T, time constant of cyanide binding (exponential fit of heme methyl peak intensities) [1, 4] | k obs, second-order association rate constant for cyanide binding [1, 5] | k obs, second-order association rate constant for cyanide binding [1] | T, time constant of cyanide binding (exponential fit of heme methyl peak intensities) ([1]; pH 7.4) | also measured
1 | B1 | 19 min | 1.75 M⁻¹ s⁻¹ |  |  | time after KCN injection at which CN− binding reaction was completed ([1]; judged from constant peak intensities, 500 μM KCN): 60 min
2 | B2 | 97 min | 0.34 M⁻¹ s⁻¹ |  |  | time after which CN− binding reaction was hardly finished ([1]; 500 μM KCN): ~5 h
3 | B3 | 265 min | 0.12 M⁻¹ s⁻¹ |  |  | fraction of isomer remaining unbound (free) at equilibrium ([1]; 500 μM KCN, 100 μM protein): ~24%; k off, off-rate of cyanide [1]: 3.9e-05 s⁻¹; Kd [1]: 316 µM
4 | B4 | 127 min | 0.26 M⁻¹ s⁻¹ |  |  | fraction of isomer remaining unbound (free) at equilibrium ([1]; 500 μM KCN, 100 μM protein): about 42%; k off, off-rate of cyanide [1]: 3.9e-05 s⁻¹; Kd [1]: 153 µM
5 | B5 |  |  |  |  | rate (time) of air reoxidation of the disulfide bridge [2]: about 60 h
6 | B6 |  |  | 0.13 M⁻¹ s⁻¹ | 255 min | 
7 | B7 |  |  |  |  | fast cyanide binding rate (biphasic) [3]: 1.65 M⁻¹ s⁻¹; slow cyanide binding rate (biphasic) [3]: 0.37 M⁻¹ s⁻¹; k on,CN, rate of cyanide binding to the pentacoordinate state ([1]; estimated here): 6700 M⁻¹ s⁻¹
8 | B8 |  |  | 1.85 M⁻¹ s⁻¹ | 18 min | 
9 | B9 |  |  | 0.28 M⁻¹ s⁻¹ | 119 min | 
10 | B10 |  |  | 0.24 M⁻¹ s⁻¹ | 138 min | 
